Experiments:
[1] = molecular target: T1, Cynomolgus 191P4D12 (on PC3 cells) (cynomolgus monkey, UniProt A0A2K5WES1 32-510); test: FACS on PC3 cells expressing the cyno ortholog
T1 construct: also called PC3-Cynomolgus-191P4D12; Cyno ortholog
T1 sequence: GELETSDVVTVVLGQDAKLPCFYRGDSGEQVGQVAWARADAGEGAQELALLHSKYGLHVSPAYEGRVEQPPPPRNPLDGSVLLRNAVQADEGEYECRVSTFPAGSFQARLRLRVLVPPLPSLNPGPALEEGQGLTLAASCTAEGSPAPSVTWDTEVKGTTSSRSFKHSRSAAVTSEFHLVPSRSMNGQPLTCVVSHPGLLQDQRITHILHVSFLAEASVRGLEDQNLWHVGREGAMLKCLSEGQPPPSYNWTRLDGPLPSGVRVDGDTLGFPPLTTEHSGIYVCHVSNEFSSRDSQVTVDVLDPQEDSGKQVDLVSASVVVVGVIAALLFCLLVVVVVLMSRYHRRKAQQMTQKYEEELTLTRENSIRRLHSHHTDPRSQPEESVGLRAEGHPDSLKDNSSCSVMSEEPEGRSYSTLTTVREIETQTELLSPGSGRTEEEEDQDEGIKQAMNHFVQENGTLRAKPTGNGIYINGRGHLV
Excerpt: The 191P4D12 protein of human, cynomolgus, rat and murine origin was overexpressed recombinantly in a PC3 cell line to determine cross-reactivity of Ha22-2(2,4)6.1 to these orthologs. It was shown that Ha22-2(2,4)6.1 strongly cross-reacts with cynomolgus and rat orthologs of 191P4D12 (FIG. 23).

[2] = molecular target: T2, Rat 191P4D12 (on PC3 cells) (rat, UniProt D3ZET1 31-509); test: FACS titration on PC3 cells expressing the rat ortholog
T2 construct: whole, on cells; also called PC3-rat-191P4D12; Rat ortholog
T2 sequence: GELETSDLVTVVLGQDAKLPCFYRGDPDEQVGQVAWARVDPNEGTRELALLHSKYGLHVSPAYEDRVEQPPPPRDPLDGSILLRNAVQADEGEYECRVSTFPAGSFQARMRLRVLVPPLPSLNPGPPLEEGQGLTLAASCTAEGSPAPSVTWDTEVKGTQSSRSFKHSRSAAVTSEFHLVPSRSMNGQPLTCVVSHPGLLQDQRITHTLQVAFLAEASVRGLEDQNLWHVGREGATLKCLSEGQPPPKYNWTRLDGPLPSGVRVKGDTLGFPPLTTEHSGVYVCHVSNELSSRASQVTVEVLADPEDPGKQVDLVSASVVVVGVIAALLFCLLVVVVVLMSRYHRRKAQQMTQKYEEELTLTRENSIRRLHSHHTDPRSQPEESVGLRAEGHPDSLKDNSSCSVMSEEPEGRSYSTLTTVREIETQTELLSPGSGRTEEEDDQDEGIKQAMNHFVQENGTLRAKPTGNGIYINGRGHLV

[3] = molecular target: T3, 191P4D12 (aa 1-31, 147-510), C1C2, Rat1(E) expressing line (human, UniProt Q96NY8 1-510); test: FACS on Rat1(E) cells expressing the C1C2 construct [Continued]
T3 construct: Deletion construct on the surface of Rat1(E) cells; also called C1C2 domain expressing cells
T3 sequence: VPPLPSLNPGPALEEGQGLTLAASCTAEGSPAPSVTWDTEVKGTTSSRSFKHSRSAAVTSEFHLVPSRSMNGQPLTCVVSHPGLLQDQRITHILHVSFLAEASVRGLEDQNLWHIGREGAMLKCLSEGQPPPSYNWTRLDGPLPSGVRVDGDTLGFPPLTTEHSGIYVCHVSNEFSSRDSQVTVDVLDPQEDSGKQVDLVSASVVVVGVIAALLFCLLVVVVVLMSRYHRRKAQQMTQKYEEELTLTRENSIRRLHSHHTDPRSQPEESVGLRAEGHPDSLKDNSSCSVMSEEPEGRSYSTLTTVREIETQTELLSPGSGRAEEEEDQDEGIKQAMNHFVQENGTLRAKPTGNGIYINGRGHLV

[4] = molecular target: T4, purified recombinant 191P4D12 (ECD amino acids 1-348) (human, UniProt Q96NY8 32-348); test: SPR (Biacore), antibody captured by anti-human Fc, 191P4D12 ECD as analyte
T4 construct: Range as printed
T4 sequence: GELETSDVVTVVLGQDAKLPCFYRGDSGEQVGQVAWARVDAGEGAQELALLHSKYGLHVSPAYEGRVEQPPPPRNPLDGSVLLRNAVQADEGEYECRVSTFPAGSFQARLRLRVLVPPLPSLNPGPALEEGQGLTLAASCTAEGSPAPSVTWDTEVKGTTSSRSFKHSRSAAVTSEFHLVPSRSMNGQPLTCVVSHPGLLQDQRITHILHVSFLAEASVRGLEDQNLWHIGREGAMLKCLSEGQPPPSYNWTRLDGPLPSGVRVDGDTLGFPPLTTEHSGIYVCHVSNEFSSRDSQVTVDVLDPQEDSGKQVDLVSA
Description: The affinity of Ha22-2(2,4)6.1 MAb and Ha22-2(2,4)6.1vcMMAE to purified recombinant 191P4D12 (ECD amino acids 1-348) was performed by Surface Plasmon Resonance (SPR) (BIAcore). Briefly, goat-anti-human Fcγ polyclonal Abs (Jackson Immuno Research Labs, Inc.) were covalently immobilized on the surface of a CM5 sensor chip (Biacore). Purified Ha22-2(2,4)6.1 MAb or Ha22-2(2,4)6.1vcMMAE were then captured on the surface of said chip. On average, approximately 300 RUs of test Ha22-2(2,4)6.1 MAb or Ha22-2(2,4)6.1vcMMAE was captured in every cycle. Subsequently, a series of five (5) to six (6) dilutions of recombinant 191P4D12 (ECD amino acids 1-348) ranging from 1 nM to 100 nM was injected over such surface to generate binding curves (sensograms) that were processed and globally fit to a 1:1 interaction model using BIAevaluation 3.2 and CLAMP software (Myszka and Morton, 1998) (FIG. 22). Table V summarizes association and dissociation rate constants as well as affinities of Ha22-2(2,4)6.1 MAb and Ha22-2(2,4)6.1 vcMMAE to recombinant 191P4D12 (ECD amino acids 1-348).

B1: Ha22-2(2,4)6.1 MAb (antibody, human IgG1, kappa, V domains shown)
VH: EVQLVESGGGLVQPGGSLRLSCAASGFTFSSYNMNWVRQAPGKGLEWVSYISSSSSTIYYADSVKGRFTISRDNAKNSLSLQMNSLRDEDTAVYYCARAYYYGMDVWGQGTTVTVSS
VL: DIQMTQSPSSVSASVGDRVTITCRASQGISGWLAWYQQKPGKAPKFLIYAASTLQSGVPSRFSGSGSGTDFTLTISSLQPEDFATYYCQQANSFPPTFGGGTKVEIKR
notes: Fully human IgG1 kappa from XenoMouse; Used biotinylated in the Western blot; also called 191P4D12 MAb Ha22-2(2,4)6.1; Ha22-(2,4)6.1 MAb
EC50 [1]: 0.3 nM
EC50 (read off the curve) [2]: ~0.3 nM
binding result [3]: no binding
Kd [4]: 16 nM
koff [4]: 0.0058 s⁻¹
kon [4]: 380000 M⁻¹ s⁻¹
